# Assay results: article PMC4319933, “Insights into the Cellular Function of YhdE, a Nucleotide Pyrophosphatase from Escherichia coli” (PLoS ONE, 2015)
# B1: YhdE (Escherichia coli K-12) (protein)
# chain: TSLYLASGSPRRQELLAQLGVTFERIVTGIEEQRQPQESAQQYVVRLAREKARAGVAQTAKDLPVLGADTIVILNGEVLEKPRDAEHAAQMLRKLSGQTHQVMTAVALADSQHILDCLVVTDVTFRTLTDEDIAGYVASDEPLDKAGAYGIQGLGGCFVRKINGSYHAVVGLPLVETYELLSNFNALREKRDKHDG
# notes: dimer in solution ~45 kDa, monomer ~22 kDa; PDB entries are of the E33A mutant
# B2: YhdE, a Maf-like protein in Escherichia coli (nucleotide pyrophosphatase) (enzyme, UniProt P25536 1-197, looked up)
# chain: MTSLYLASGSPRRQELLAQLGVTFERIVTGIEEQRQPQESAQQYVVRLAREKARAGVAQTAKDLPVLGADTIVILNGEVLEKPRDAEHAAQMLRKLSGQTHQVMTAVALADSQHILDCLVVTDVTFRTLTDEDIAGYVASDEPLDKAGAYGIQGLGGCFVRKINGSYHAVVGLPLVETYELLSNFNALREKRDKHDG
# notes: YhdE, Maf-like protein of Escherichia coli; the open reading frame of yhdE cloned into pFO4 (BamHI/EcoRI); also called recombinant YhdE; source: E. coli BL21(DE3), purified (Ni2+ chelation, size-exclusion chromatography)
# Experiments:
# [1] = substrate: Cc1cn([C@H]2C[C@H](O)[C@@H](COP(=O)(O)OP(=O)(O)OP(=O)(O)O)O2)c(=O)[nH]c1=O; assay: purified protein; type: biochemical, Escherichia coli; details: 2 mM Mn2+, 20 mM HEPES pH 7.0, 25 °C, 1.5 µM enzyme, apparent Km, Hill coefficient 2.2 (positive cooperativity)
# [2] = substrate: O=c1ccn([C@@H]2O[C@H](COP(=O)(O)OP(=O)(O)OP(=O)(O)O)[C@@H](O)[C@H]2O)c(=O)[nH]1; assay: purified protein; type: biochemical, Escherichia coli; details: 2 mM Mn2+, 20 mM HEPES pH 7.0, 25 °C, 1.5 µM enzyme, apparent Km, Hill coefficient 1.9 (positive cooperativity)
# [3] = molecular target: the molecule itself; assay: SEC; size-exclusion chromatography after Ni2+ chelation; Bis-Tris buffer, pH 6.75; YhdE eluted at approximately 81 mL, approximately 45 kDa
Protein,Km [1],Vmax [1],kcat [1],kcat/Km [1],Km [2],Vmax [2],kcat [2],kcat/Km [2],stoichiometry N [3]
B1,90 µM,3600 µM/min,43 s⁻¹,503000 M⁻¹ s⁻¹,500 µM,8400 µM/min,95 s⁻¹,191000 M⁻¹ s⁻¹,
B2,,,,,,,,,2
